A value given as a limit tells only on which side of the number the result lay.

The target of the test is ligands present on the membranes of early apoptotic cells. The experiment in a line: flow cytometry on anti-CD95-treated Jurkat E6-1 cells, streptavidin-PE detection.

On to “human soluble CD163, biotinylated (sCD163-biotin) (from UniProt Q86VB7 42-1045)”, for which the percent of early apoptotic Jurkat E6-1 cells binding sCD163-biotin is > 50%.
